We go through 1 molecule from article doi:10.1101/2021.01.22.427567 (bioRxiv, 2021).

This assay has as its target SARS-CoV-2 S trimer (SARS-CoV-2, wild-type (Wuhan-Hu-1 …, UniProt P0DTC2)). As to the kind of experiment: SPR. Background: In SPR one partner is held on a chip, and binding of the other changes the refractive index at the surface.

B1: C121 IgG (antibody, V domains shown)
VH: not shown
VL: QSALTQPASVSGSPGQSITISCTGTSSDVGSYNLVSWYQQHPGKAPKLMIYEGSKRPSGVSNRFSGSKSGNTASLTISGLQAEDEADYYCCSYAGSSTLVFGGGTKLTVL
For B1, the binding result is “binds”.
